Tests used:
co-ligated CR2.IgG1 = target: T1, co-ligated CR2.IgG1; assay: competitive ELISA: plate-bound C3d, 125 pM CR2.IgG1, soluble C3d titrated, HRP anti-mouse IgG1 detection
T1 construct: also called CR2; IgGl
Protocol: C3d is used to coat 96-well microtitre plates at 5 µg/ml in O. 1M NaHCO_3 by incubating overnight at 4° C. The plates are then blocked in 1% BSA 0.1% Tween-20 in PBS for 1 h at room temperature subsequently they are incubated with either 25 µl/well of C3d or from the C3d containing molecule under test in a dose response manner. To the wells is added 25 µl/well of a sub-saturating concentration of co-ligated CR2. […] The plates are then washed three times with PBS containing 0.1% (v/v) Tween-20. The amount of CR2 bound to the immobilised C3d is detected using a 1:3000 dilution of HRP-labeled goat anti-mouse-IgGl-antibody in PBS containing 0.1% (v/v)Tween-20 and incubated for 1 h at room temperature the wells were then washed as described above. The presence of HRP-antibody is detected using the TMB Peroxidase EIA Substrate Kit according to the manufacturer's instructions (Bio-Rad, UK).
The ELISA was performed as described in General Methods Section (xvii) (b). The monomer gave a $I50$ of 2 µM for the baculovirus/Sf9 material. A similar figure was obtained for the COS cell produced C3d.

[1] = target: T2, complement receptor-2 (CR2) on the surface of Raji cells (UniProt P20023 21-1033, limits assumed); assay: competitive binding on Raji cells against 1 nM 125I-HEL-C3d, 1 h at 4 C, cell-pellet radioactivity
T2 construct: whole, on cells; also called CD21; complement receptor type 2
T2 sequence (looked up): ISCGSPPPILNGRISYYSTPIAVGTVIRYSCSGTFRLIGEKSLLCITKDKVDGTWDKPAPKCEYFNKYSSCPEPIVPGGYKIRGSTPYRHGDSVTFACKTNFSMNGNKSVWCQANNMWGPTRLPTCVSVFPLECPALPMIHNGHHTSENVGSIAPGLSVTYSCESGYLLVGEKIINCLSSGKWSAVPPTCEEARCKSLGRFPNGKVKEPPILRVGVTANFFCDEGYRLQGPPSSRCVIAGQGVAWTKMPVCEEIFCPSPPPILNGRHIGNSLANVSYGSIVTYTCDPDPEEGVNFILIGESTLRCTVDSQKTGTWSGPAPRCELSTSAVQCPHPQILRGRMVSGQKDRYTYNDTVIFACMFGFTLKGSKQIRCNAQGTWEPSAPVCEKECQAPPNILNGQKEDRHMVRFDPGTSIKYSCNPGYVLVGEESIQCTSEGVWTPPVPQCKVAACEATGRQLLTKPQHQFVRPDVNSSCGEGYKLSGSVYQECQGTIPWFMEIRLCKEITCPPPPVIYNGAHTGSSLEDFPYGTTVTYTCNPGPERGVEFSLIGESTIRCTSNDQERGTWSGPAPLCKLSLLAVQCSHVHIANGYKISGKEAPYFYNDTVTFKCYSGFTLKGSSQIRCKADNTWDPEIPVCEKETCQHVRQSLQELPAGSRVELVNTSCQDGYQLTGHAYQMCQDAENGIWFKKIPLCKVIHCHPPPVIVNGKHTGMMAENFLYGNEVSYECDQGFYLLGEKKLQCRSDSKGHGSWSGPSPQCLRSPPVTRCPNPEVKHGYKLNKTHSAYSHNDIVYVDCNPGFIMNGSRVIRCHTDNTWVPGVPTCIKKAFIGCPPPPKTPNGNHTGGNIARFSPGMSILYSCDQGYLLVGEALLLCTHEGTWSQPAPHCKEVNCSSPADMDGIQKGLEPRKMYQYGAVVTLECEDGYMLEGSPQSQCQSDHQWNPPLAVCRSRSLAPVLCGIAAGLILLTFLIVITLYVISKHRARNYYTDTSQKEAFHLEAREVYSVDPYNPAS
Protocol: The cells are then centrifuged through a dibutyl-diiso-octyl-phthalate cushion, and the amount of radioactivity associated with the pellet determined.
The binding was performed as described in General Methods Section (xvii) (a).

Binder	IC50 (co-ligated CR2.IgG1) [µM]	IC50 [1] [µM]
C3d monomer produced in baculovirus/Sf9 cells (murine C3d with C-terminal Glu-Glu-Phe tag) (ligand, The end residue 330 was counted from the printed appendix (33 rows of 10 residues); Measured mass 34279 Da; also called baculovirus/Sf9 C3d; C3d1) not shown	2	2.5
C3d expressed in COS cells (ligand, domain: C3d; Comparator material; also called COS cell produced C3d) not shown		2.5
